Test results from patent US20230357790, “SELF-TARGETING EXPRESSION VECTOR” (Touchlight IP Limited, published 2023).

Target: Streptavidin (UniProt P22629 P22629:25-183)
Experiment: no specific binding to plate; same buffer, room temp
Conditions: chain copies: 4
Procedure: Obtained vectors were tested for binding a streptavidin-coated plate. The amount of DNA retained on the plate was detected by pico-green incorporation assay.
DNA was mixed with streptavidin-coated plate in binding buffer for 2 h, at room temp. Plate was washed 3× with same binding buffer, and the DNA that was bound to the plate was detected with PicoGreen assay in plate, without detaching DNA. [0490] Binding buffer (10×) [0491] 1 M NaCl [0492] 20 mM MgCl2 [0493] 50 mM KCl [0494] 10 mM CaCl2) [0495] 200 mM Tris-HCl, pH 7.6

Streptavidin, sequence (P22629 25-183, one chain of several): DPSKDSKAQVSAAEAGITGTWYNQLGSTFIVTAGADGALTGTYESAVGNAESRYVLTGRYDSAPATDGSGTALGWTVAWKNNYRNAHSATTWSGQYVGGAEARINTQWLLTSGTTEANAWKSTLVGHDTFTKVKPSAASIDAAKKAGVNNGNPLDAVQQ

B1: noApt vector cap (control) (structured_DNA)
DNA: CTGCTCACCTGCCAGCTACGGACGCGGAACGCGTCCGTAGCTGGCAGGTGAGCAG
**Q.** Does B1 bind?
**A.** no binding
